# Results from the Human Domainome abundance scans (Beltran et al. 2025).
# ± gives the uncertainty stated by the source.
# B1: Integrator complex subunit 12, residues 155 to 213; numbered along this chain, Q96CB8 (parent)
# chain: AMEMGLACVVCRQMMVASGNQLVECQECHNLYHRDCHKPQVTDKEANDPRLVWYCARCT
# Variants of: B1
# Test: abundance fitness (aPCA) (normalised: wild type 0, dead -1); higher = more abundant; growth selection in yeast, the domain comes from the species named
# Conditions: Homo sapiens
row,Variant,abundance fitness
1,N20M,-0.387 ± 0.069
2,C36Q,-0.672 ± 0.077
3,H37T,-0.101 ± 0.042
4,M14Y,0.019 ± 0.036
5,V41R,-0.308 ± 0.038
6,M2N,-0.112 ± 0.04
7,D43C,-0.078 ± 0.06
8,R57C,-0.075 ± 0.068
9,M2E,-0.046 ± 0.09
10,P39T,-0.087 ± 0.056
11,E3P,-0.359 ± 0.048
12,C28L,-0.773 ± 0.048
13,A1N,0.109 ± 0.086
14,A17Q,0.069 ± 0.09
15,Q13D,-0.075 ± 0.046
16,C25D,-0.655 ± 0.074
17,E3S,-0.038 ± 0.031
18,L6F,-0.081 ± 0.036
19,A1T,0.125 ± 0.068
20,K44Y,-0.486 ± 0.07
21,C36F,-0.775 ± 0.045
22,D35C,-0.045 ± 0.033
23,L51A,0.042 ± 0.054
24,R34H,-0.083 ± 0.067

row,Variant,abundance fitness
1,R50M,-0.028 ± 0.06
2,Q13I,-0.147 ± 0.035
3,V52K,0.103 ± 0.065
4,H37P,-0.645 ± 0.054
5,M4D,-0.06 ± 0.04
6,D35V,-0.083 ± 0.032
7,Q21D,-0.008 ± 0.041
8,H37R,-0.315 ± 0.038
9,D35Q,0.094 ± 0.054
10,C28V,-0.845 ± 0.04
11,W53G,-0.27 ± 0.052
12,A56G,-0.057 ± 0.039
13,H33C,0.013 ± 0.035
14,V16L,-0.022 ± 0.037
15,H37C,-0.144 ± 0.034
16,M14E,0.042 ± 0.059
17,A7L,-0.064 ± 0.037
18,M4V,0.006 ± 0.033
19,W53K,-0.146 ± 0.067
20,W53N,-0.112 ± 0.094
21,C58T,-0.918 ± 0.085
22,A56N,-0.209 ± 0.11
23,S18N,0.015 ± 0.035
24,M2H,-0.136 ± 0.059

row,Variant,abundance fitness
1,L31G,-0.048 ± 0.03
2,A17N,0.001 ± 0.039
3,Q21G,-0.018 ± 0.035
4,V41D,-0.297 ± 0.083
5,R50F,-0.126 ± 0.084
6,T59P,-0.142 ± 0.083
7,V23A,-0.179 ± 0.039
8,H33S,-0.721 ± 0.036
9,M2G,0.009 ± 0.032
10,D43Y,-0.161 ± 0.067
11,A7S,0.01 ± 0.034
12,A1R,-0.061 ± 0.088
13,T42N,-0.041 ± 0.053
14,P49D,0.026 ± 0.079
15,Q26R,-0.008 ± 0.042
16,G5Y,-0.267 ± 0.036
17,M15R,0.023 ± 0.032
18,E3G,-0.167 ± 0.034
19,L31C,0.047 ± 0.035
20,V41T,-0.165 ± 0.057
21,N47P,-0.2 ± 0.056
22,M15D,0.09 ± 0.035
23,C28G,-0.519 ± 0.033
24,K44L,-0.121 ± 0.049

row,Variant,abundance fitness
1,M4Q,-0.055 ± 0.09
2,T42K,-0.01 ± 0.047
3,A7E,-0.064 ± 0.068
4,E45Y,0.005 ± 0.094
5,V9Y,-0.147 ± 0.035
6,R57F,-0.234 ± 0.095
7,A46K,0.05 ± 0.062
8,C25H,-0.72 ± 0.11
9,C55M,-1.11 ± 0.11
10,L22N,-0.042 ± 0.045
11,H37Y,-0.249 ± 0.036
12,Q40L,-0.045 ± 0.045
13,M2W,-0.167 ± 0.075
14,A1W,-0.199 ± 0.24
15,V23L,0.006 ± 0.032
16,C25K,-0.915 ± 0.19
17,E3D,-0.065 ± 0.037
18,E3M,-0.232 ± 0.069
19,D48P,-0.214 ± 0.065
20,K44R,-0.042 ± 0.043
21,Q21K,-0.123 ± 0.067
22,L22H,-0.001 ± 0.049
23,V52G,0.023 ± 0.051
24,H29G,-0.016 ± 0.03

row,Variant,abundance fitness
1,V10Y,-0.202 ± 0.035
2,C36L,-0.763 ± 0.043
3,E45P,-0.222 ± 0.078
4,D35P,-0.215 ± 0.044
5,T42I,-0.281 ± 0.058
6,L6M,0.086 ± 0.053
7,R12E,0.007 ± 0.067
8,E24T,-0.157 ± 0.055
9,D48Q,-0.002 ± 0.063
10,H33E,-0.483 ± 0.059
11,S18M,-0.078 ± 0.057
12,V9D,-0.248 ± 0.049
13,D43I,-0.073 ± 0.06
14,L6S,0.073 ± 0.033
15,A7H,0.078 ± 0.044
16,R57L,-0.122 ± 0.042
17,M14G,0.115 ± 0.033
18,C25Q,-0.458 ± 0.18
19,T42C,0.069 ± 0.074
20,K44W,-0.306 ± 0.067
21,Q21T,0.084 ± 0.057
22,A7D,-0.027 ± 0.04
23,V9W,-0.45 ± 0.095
24,R12I,-0.74 ± 0.044

row,Variant,abundance fitness
1,D35T,0.023 ± 0.038
2,H33G,-0.668 ± 0.037
3,V16D,0.017 ± 0.036
4,H33L,-0.869 ± 0.044
5,A1V,0.037 ± 0.043
6,D48K,-0.027 ± 0.056
7,C28S,-0.68 ± 0.034
8,H33D,-0.547 ± 0.039
9,E45N,-0.074 ± 0.1
10,P39N,-0.144 ± 0.11
11,D35M,0.042 ± 0.05
12,E3Q,-0.102 ± 0.071
13,C58R,-0.929 ± 0.061
14,M15Y,-0.025 ± 0.034
15,C8W,-1.38 ± 0.22
16,E27N,-0.009 ± 0.036
17,R12G,0.028 ± 0.037
18,C36Y,-0.727 ± 0.043
19,Q21R,0.004 ± 0.045
20,C11R,-0.885 ± 0.061
21,R34V,-0.018 ± 0.051
22,D43W,-0.189 ± 0.041
23,V52F,-0.126 ± 0.064
24,Q26N,0.013 ± 0.051

row,Variant,abundance fitness
1,E27F,-0.143 ± 0.035
2,K38G,-0.15 ± 0.05
3,G5T,-0.045 ± 0.039
4,V10R,-0.347 ± 0.039
5,P39I,-0.184 ± 0.1
6,A56R,-0.12 ± 0.041
7,M15E,-0.081 ± 0.07
8,C55D,-0.507 ± 0.14
9,N20W,-0.281 ± 0.062
10,C55E,-0.765 ± 0.067
11,V10K,-0.242 ± 0.05
12,G19R,-0.116 ± 0.039
13,Q40F,-0.023 ± 0.086
14,C11K,-0.761 ± 0.092
15,H37V,-0.075 ± 0.032
16,C58W,-1.26 ± 0.12
17,H29W,-0.426 ± 0.066
18,K38C,-0.089 ± 0.077
19,E27R,-0.001 ± 0.034
20,V16S,0.011 ± 0.03
21,T59M,-0.237 ± 0.13
22,Q26C,-0.038 ± 0.049
23,V16T,0.044 ± 0.044
